Measurements as given in US20210032365A1 (Chugai, published 2021).
Residue numbers refer to the chain shown, from its start.

T1: human C1s (human, UniProt P09871 16-688)
T1 construct: Analyte in the Biacore assays; also called hC1s; serum-derived human C1s (CompTech)
T1 sequence: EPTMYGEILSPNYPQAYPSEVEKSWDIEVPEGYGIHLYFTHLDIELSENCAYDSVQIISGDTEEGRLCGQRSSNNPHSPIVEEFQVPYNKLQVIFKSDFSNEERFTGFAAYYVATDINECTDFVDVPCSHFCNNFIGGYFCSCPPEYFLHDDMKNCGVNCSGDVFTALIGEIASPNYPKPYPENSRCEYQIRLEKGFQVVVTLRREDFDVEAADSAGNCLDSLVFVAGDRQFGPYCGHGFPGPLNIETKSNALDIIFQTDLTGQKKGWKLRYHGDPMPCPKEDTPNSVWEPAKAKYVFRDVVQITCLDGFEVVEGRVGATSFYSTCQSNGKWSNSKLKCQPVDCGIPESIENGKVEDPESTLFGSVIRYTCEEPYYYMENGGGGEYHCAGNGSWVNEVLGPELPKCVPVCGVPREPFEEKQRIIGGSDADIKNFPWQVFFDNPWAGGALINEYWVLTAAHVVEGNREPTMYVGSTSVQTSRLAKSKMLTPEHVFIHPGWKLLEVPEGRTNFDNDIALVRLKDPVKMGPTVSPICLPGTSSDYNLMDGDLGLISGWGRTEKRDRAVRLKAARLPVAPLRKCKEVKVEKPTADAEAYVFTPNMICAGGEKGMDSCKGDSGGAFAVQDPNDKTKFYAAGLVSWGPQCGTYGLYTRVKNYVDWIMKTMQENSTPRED

B1: C1_IPN92H0144-SG4GK/IPN93L0024-SK1 (antibody, human IgG4 S228P, kappa, name in Kabat numbering, V domains shown)
VH: EVMLVESGGGLVKPGGSLRLSCAASGFTFSNYAMSWVRQAPGKGLEWVATISSGGSKTYYLDSVKGRFTISRDNSKDTLYLQMNSLRAEDTALYYCARLFTGHAMDYWGQGTLVTVSS
VL: QIVLTQSPATLSLSPGERATLSCTASSSVSSSYLHWYQQKPGKAPKLWIYSTSNLASGVPSRFSGSGSGTDYTLTISSLQPEDFATYYCHQYYRLHPITFGQGTKLEIKR
notes: Substitutions from IPN009VH2, Kabat numbering; also called IPN92H0144/IPN93L0024
B2: C1_IPN92H0194-SG4GK/IPN93L0024-SK1 (antibody, human IgG4 S228P, kappa, name in Kabat numbering, V domains shown)
VH: B1 VH with K57H, G66E
VL: B1 VL
notes: Substitutions from IPN009VH2, Kabat numbering; also called IPN92H0194/IPN93L0024
B3: C1_IPN92H0188-SG4GK/IPN93L0024-SK1 (antibody, human IgG4 S228P, kappa, name in Kabat numbering, V domains shown)
VH: B1 VH with K57H, K65D
VL: B1 VL
notes: Substitutions from IPN009VH2, Kabat numbering; also called IPN92H0188/IPN93L0024
B4: C1_IPN92H0166-SG4GK/IPN93L0024-SK1 (antibody, human IgG4 S228P, kappa, name in Kabat numbering, V domains shown)
VH: B1 VH with K57H, L61E
VL: B1 VL
notes: Substitutions from IPN009VH2, Kabat numbering; also called IPN92H0166/IPN93L0024
B5: C1_IPN92H0159-SG4GK/IPN93L0024-SK1 (antibody, human IgG4 S228P, kappa, name in Kabat numbering, V domains shown)
VH: B1 VH with K57H, Y60D
VL: B1 VL
notes: Substitutions from IPN009VH2, Kabat numbering; also called IPN92H0159/IPN93L0024
B6: C1_IPN92H0231-SG4GK/IPN93L0024-SK1 (antibody, human IgG4 S228P, kappa, name in Kabat numbering, V domains shown)
VH: B1 VH with K57H, G102K
VL: B1 VL
notes: Substitutions from IPN009VH2, Kabat numbering; also called IPN92H0231/IPN93L0024
B7: C1_IPN92H0160-SG4GK/IPN93L0024-SK1 (antibody, human IgG4 S228P, kappa, name in Kabat numbering, V domains shown)
VH: B1 VH with K57H, Y60E
VL: B1 VL
notes: Substitutions from IPN009VH2, Kabat numbering; also called IPN92H0160/IPN93L0024
B8: C1_IPN92H0193-SG4GK/IPN93L0024-SK1 (antibody, human IgG4 S228P, kappa, name in Kabat numbering, V domains shown)
VH: B1 VH with K57H, G66D
VL: B1 VL
notes: Substitutions from IPN009VH2, Kabat numbering; also called IPN92H0193/IPN93L0024
B9: C1_IPN92H0162-SG4GK/IPN93L0024-SK1 (antibody, human IgG4 S228P, kappa, name in Kabat numbering, V domains shown)
VH: B1 VH with K57H, Y60K
VL: B1 VL
notes: Substitutions from IPN009VH2, Kabat numbering; also called IPN92H0162/IPN93L0024
B10: C1_IPN92H0145-SG4GK/IPN93L0024-SK1 (antibody, human IgG4 S228P, kappa, name in Kabat numbering, V domains shown)
VH: B1 VH with K57R
VL: B1 VL
notes: Substitutions from IPN009VH2, Kabat numbering; also called IPN92H0145/IPN93L0024
B11: C1_IPN92H0147-SG4GK/IPN93L0024-SK1 (antibody, human IgG4 S228P, kappa, name in Kabat numbering, V domains shown)
VH: B1 VH with K57H, T58D
VL: B1 VL
notes: Substitutions from IPN009VH2, Kabat numbering; also called IPN92H0147/IPN93L0024
B12: C1_IPN92H0165-SG4GK/IPN93L0024-SK1 (antibody, human IgG4 S228P, kappa, name in Kabat numbering, V domains shown)
VH: B1 VH with K57H, L61D
VL: B1 VL
notes: Substitutions from IPN009VH2, Kabat numbering; also called IPN92H0165/IPN93L0024
B13: C1_IPN92H0157-SG4GK/IPN93L0024-SK1 (antibody, human IgG4 S228P, kappa, name in Kabat numbering, V domains shown)
VH: B1 VH with K57H, Y59R
VL: B1 VL
notes: Substitutions from IPN009VH2, Kabat numbering; also called IPN92H0157/IPN93L0024
B14: C1_IPN92H0156-SG4GK/IPN93L0024-SK1 (antibody, human IgG4 S228P, kappa, name in Kabat numbering, V domains shown)
VH: B1 VH with K57H, Y59K
VL: B1 VL
notes: Substitutions from IPN009VH2, Kabat numbering; also called IPN92H0156/IPN93L0024

What was measured:
human C1s [1] = target: T1, human C1s; experiment: SPR; KD at pH 5.8 (3 uM Ca) over KD at pH 7.4 (1.2 mM Ca)
Method: (§1) Each antibody was captured onto the sensor surface by protein A/G. Antibody capture levels were aimed at 200 resonance unit (RU). Serum-derived human C1s (CompTech) or recombinant C1s prepared in EXAMPLE 1 was injected at 50 nM, followed by dissociation. The sensor surface was regenerated in each cycle with 10 mM Glycine-HCl, pH 1.5. […] The ratio of KD 5.8+ to KD 7.4+(“KD 5+/7+”) and that of KD 5.8− to KD 7.4+(“KD 5−/7+”) were calculated. When the KD 5+/7+ or KD 5−/7+ of a variant is larger than that of the parent antibody IPN009VH2-SG4GK/IPN009VK3-SK1, that variant is considered to be “pH”- or “pH and Ca”-dependent, respectively. When binding response in 5(+) buffer and/or in 5(−) buffer of a variant is much lower than that of IPN09VH2/IPN009VK3, that variant is also considered as “pH”- and/or “pH and Ca”-dependent. Therefore, such mutations are effective to generate “pH”- and/or “pH and Ca”-dependent antibody. To further enhance “pH” and/or “pH and Ca” dependency, a combination of histidine mutations was conducted. Antibodies with combinations of histidine mutations were evaluated using Biacore by the method described above.
(§2) C1_1IPN92H0033 (SEQ ID NO: 17)-SG4GK/IPN93L0024 (SEQ ID NO: 18)-SK1 (IPN92H0033/IPN93L0024) was selected for further optimization. Histidine, Lysine, Arginine, aspartic acid, glutamic acid, and glutamine scanning was conducted for CDRs and certain positions of FRs of IPN92H0033/IPN93L0024. Variants with a mutation were generated and purified, and evaluated using Biacore by the method mentioned above. All variants were evaluated using Biacore as mentioned above. Mutations that improved “pH” and/or “pH and Ca” dependency were selected for the combination.

human C1s [2] = target: T1, human C1s; experiment: SPR (Biacore T200, 37C), Ab captured on protein A/G; pH 5.8, 3 uM Ca
Method: as §1, §2

human C1s [3] = target: T1, human C1s; experiment: SPR; KD at pH 5.8 (1.2 mM Ca) over KD at pH 7.4 (1.2 mM Ca)
Method: as §1, §2

human C1s [4] = target: T1, human C1s; experiment: SPR (Biacore T200, 37C), Ab captured on protein A/G; pH 5.8, 1.2 mM Ca
Method: as §1, §2

Row | Binder | KD 5(-)/7(+) (human C1s [1]) | Kd (human C1s [2]) [nM] | koff (human C1s [2]) [s⁻¹] | kon (human C1s [2]) [M⁻¹ s⁻¹] | KD 5(+)/7(+) (human C1s [3]) | Kd (human C1s [4]) [nM] | koff (human C1s [4]) [s⁻¹] | kon (human C1s [4]) [M⁻¹ s⁻¹]
1 | B1 | 1.54 | 5.65 | 0.00317 | 562000 | 6.4 | 23.4 | 0.0265 | 1.13e+06
2 | B2 | 7.29 | 6.45 | 0.00517 | 802000 | 6.5 | 5.72 | 0.00429 | 751000
3 | B3 | 2.07 | 4.21 | 0.0106 | 2.53e+06 | 4 | 8.21 | 0.00413 | 504000
4 | B4 | 3.84 | 6.75 | 0.687 | 1.02e+08 | 2.1 | 3.77 | 0.00226 | 600000
5 | B5 | 3.57 | 7.36 | 0.00401 | 544000 | 8.1 | 16.6 | 0.00699 | 421000
6 | B6 | 4.06 | 5.28 | 0.00674 | 1.28e+06 | 7.4 | 9.59 | 0.00544 | 568000
7 | B7 | 4.82 | 7.32 | 0.00411 | 562000 | 9 | 13.7 | 0.00634 | 461000
8 | B8 | 3.47 | 3.21 | 0.0685 | 2.14e+07 | 6.2 | 5.74 | 0.00417 | 727000
9 | B9 | 2.72 | 4.89 | 0.00784 | 1.6e+06 | 6.4 | 11.5 | 0.00524 | 456000
10 | B10 | 1.36 | 6.4 | 0.003 | 469000 | 4.1 | 19.2 | 0.0496 | 2.58e+06
11 | B11 | 1.58 | 3.23 | – | – | 6.4 | 13.2 | 0.00589 | 445000
12 | B12 | 4.62 | 8.18 | 0.715 | 8.74e+07 | 2.1 | 3.74 | 0.00228 | 608000
13 | B13 | 5.07 | 10.3 | 0.00583 | 564000 | 9.3 | 18.8 | 0.012 | 636000
14 | B14 | 4.62 | 9.8 | 0.00632 | 645000 | 7 | 14.8 | 0.00948 | 641000
